IntAct's records for PubMed 14532120

B1: Interferon alpha/beta receptor 1 (Homo sapiens), P17181 (parent)
chain: MMVVLLGATTLVLVAVAPWVLSAAAGGKNLKSPQKVEVDIIDDNFILRWNRSDESVGNVTFSFDYQKTGMDNWIKLSGCQNITSTKCNFSSLKLNVYEEIKLRIRAEKENTSSWYEVDSFTPFRKAQIGPPEVHLEAEDKAIVIHISPGTKDSVMWALDGLSFTYSLVIWKNSSGVEERIENIYSRHKIYKLSPETTYCLKVKAALLTSWKIGVYSPVHCIKTTVENELPPPENIEVSVQNQNYVLKWDYTYANMTFQVQWLHAFLKRNPGNHLYKWKQIPDCENVKTTQCVFPQNVFQKGIYLLRVQASDGNNTSFWSEEIKFDTEIQAFLLPPVFNIRSLSDSFHIYIGAPKQSGNTPVIQDYPLIYEIIFWENTSNAERKIIEKKTDVTVPNLKPLTVYCVKARAHTMDEKLNKSSVFSDAVCEKTKPGNTSKIWLIVGICIALFALPFVIYAAKVFLRCINYVFFPSLKPSSSIDEYFSEQPLKNLLLSTSEEQIEKCFIIENISTIATVEETNQTDEDHKKYSSQTSQDSGNYSNEDESESKTSEELQQDFV
B2: Interferon alpha/beta receptor 1 (Mus musculus), P33896 (parent)
chain: MLAVVGAAALVLVAGAPWVLPSAAGGENLKPPENIDVYIIDDNYTLKWSSHGESMGSVTFSAEYRTKDEAKWLKVPECQHTTTTKCEFSLLDTNVYIKTQFRVRAEEGNSTSSWNEVDPFIPFYTAHMSPPEVRLEAEDKAILVHISPPGQDGNMWALEKPSFSYTIRIWQKSSSDKKTINSTYYVEKIPELLPETTYCLEVKAIHPSLKKHSNYSTVQCISTTVANKMPVPGNLQVDAQGKSYVLKWDYIASADVLFRAQWLPGYSKSSSGSRSDKWKPIPTCANVQTTHCVFSQDTVYTGTFFLHVQASEGNHTSFWSEEKFIDSQKHILPPPPVITVTAMSDTLLVYVNCQDSTCDGLNYEIIFWENTSNTKISMEKDGPEFTLKNLQPLTVYCVQARVLFRALLNKTSNFSEKLCEKTRPGSFSTIWIITGLGVVFFSVMVLYALRSVWKYLCHVCFPPLKPPRSIDEFFSEPPSKNLVLLTAEEHTERCFIIENTDTVAVEVKHAPEEDLRKYSSQTSQDSGNYSNEEEESVGTESGQAVLSKAPCGGPCSVPSPPGTLEDGTCFLGNEKYLQSPALRTEPALLC

Variants of: B1
Details: with fbw1b_human FBXW11, Q9UKB1
Chain of fbw1b_human FBXW11, Q9UKB1 (Q9UKB1 whole entry): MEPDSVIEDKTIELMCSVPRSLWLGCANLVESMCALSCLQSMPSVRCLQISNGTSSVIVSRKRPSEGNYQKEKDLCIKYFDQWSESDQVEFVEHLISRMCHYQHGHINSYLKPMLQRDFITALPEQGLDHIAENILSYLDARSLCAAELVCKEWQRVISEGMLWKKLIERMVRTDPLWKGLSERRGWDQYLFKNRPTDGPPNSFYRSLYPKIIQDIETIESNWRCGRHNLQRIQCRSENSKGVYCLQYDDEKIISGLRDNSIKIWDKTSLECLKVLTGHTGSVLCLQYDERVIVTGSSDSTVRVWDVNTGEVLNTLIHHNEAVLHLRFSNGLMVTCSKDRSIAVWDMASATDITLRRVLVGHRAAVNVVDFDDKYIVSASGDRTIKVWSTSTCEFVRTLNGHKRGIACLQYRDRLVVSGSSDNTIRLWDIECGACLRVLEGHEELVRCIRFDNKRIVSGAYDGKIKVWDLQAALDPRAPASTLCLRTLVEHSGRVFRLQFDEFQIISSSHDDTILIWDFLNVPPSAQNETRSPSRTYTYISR

| effect of a mutation on the interaction | Variant |
| --- | --- |
| disrupting interaction | S535A |

Variants of: B1
Details: with fbw1b_human FBXW11, Q9UKB1
Remark: another data set of the same source

| effect of a mutation on the interaction | Variant |
| --- | --- |
| decreasing interaction | S535A |

Variants of: B2
Details: with fbw1b_human FBXW11, Q9UKB1

| effect of a mutation on the interaction | Variant |
| --- | --- |
| disrupting interaction | S526A |
